“And” between values parts separate entries of the source, which are not always exact repeats. Identical values can stand only once. “Also recorded” adds a separate entry of the source.
Key:
EhCaBP5 [1] = assay: SPR binding of native and mutated IQ motif peptides (analyte) to immobilized EhCaBP5 (model validation); parameters: species or system Entamoeba histolytica; details: peptide as analyte, 25°C
Experimental: To validate EhCaBP5-IQ motif complex model, we obtained commercially synthesized two mutated Myosin 1B IQ motif peptide IQ-M1 A*A*KAWKGYRNRKR (where IQ is mutated to AA) and IQ-M2 IQKAWKGYD*ND*KD* (Where R is mutated to D). The EhCaBP5 was immobilized on sensor chip up to 500 resonance units and native myosin 1B IQ motif peptide and mutated IQ motif peptide were passed as analyte at concentration of […]. The data were recorded at 25°C and data analysis was performed using Biacore […] SPR Kinetics evaluation software.

[2] = molecular target: IQ motif peptide of myosin 1B (native) (Entamoeba histolytica); assay: SPR
[3] = molecular target: Entamoeba histolytica calcium binding protein-5 (EhCaBP5), recombinant (Entamoeba histolytica); assay: SPR; EhCaBP5 immobilised on sensor chip up to 500 RU; native and mutated IQ motif peptides as analyte at 25, 50, 75, 100 and 125 mM (so in the source); 25°C
EhCaBP5 [4] = assay: SPR binding of EhCaBP5 (analyte) to immobilized myosin IQ motif peptides; parameters: species or system Entamoeba histolytica; details: Biacore T200, peptide immobilized (2000 RU, CM4 chip), EhCaBP5 as analyte, pH 7.4
Source text: The E. histolytica genome codes for two myosin, myosin I (accession number EAL48894) and myosin II (accession number EAL51645). Myosin I has one IQ motif and myosin II has two IQ motifs. To check the interaction between EhCaBP5 and myosin IQ motifs, we commercially synthesized (obtained) peptides of IQ motif of myosin 1B (unconventional myosin) (IQKAWKGYRNRKR) and second IQ motif of heavy chain myosin (myosin II) ([…]), which is expected to bind to ELC. For the binding study we used Biacore T200 apparatus (Biacore, GE Healthcare) at National Institute of Plant and Genome Research New Delhi, India. A total of 2000 resonance units (RU) of peptides were immobilized on a research grade S series CM4 sensor chip in 10 mM sodium acetate, pH 5.0 according to the manufacturer's amine coupling kit. After peptide immobilization, the surface was blocked with 1 M ethanolamine at pH 8.5, followed by regeneration using 50 mM NaOH. The interaction experiments were performed using buffer containing 10 mM HEPES pH 7.4, 150 mM NaCl and 0.2 mM Calcium chloride. We also performed interaction experiment in absence of Ca^2+ and supplementing 5 mM of EGTA in the above buffer. […] The association kinetics for EhCaBP5 was monitored for 300 seconds and dissociation was monitored for the next 300 seconds.

F-actin = assay: Co-sedimentation assay with F-actin; format: binding; details: in vitro, pellet fraction containing F-actin
myosin 1B = assay: Co-immunoprecipitation of myosin 1B from total cell lysate; format: binding, Entamoeba histolytica; details: immobilized anti-EhCaBP5 antibody, 800 µg E. histolytica lysate, 6 h at 4°C, with EGTA; western blot
Experimental: Immunoprecipitation was carried out as described previously. Briefly, CNBr-activated Sepharose-4B beads (Pharmacia) were conjugated with anti-EhCaBP5 antibody. Crude immunoglobulins were collected from the immunized serum using 40% ammonium sulphate and subsequently dialysed in coupling buffer (bicarbonate buffer). Usually, 10 mg immunoglobulin protein was added per gram of CNBr-activated Sepharose-4B beads. The resin was mixed gently for 18 h at 4°C. The conjugated Sepharose beads were incubated with E. histolytica lysate for 6 h at 4°C. The beads were then washed thrice with wash buffer (10 mM Tris-Cl (pH 7.5), 150 mM NaCl, 1 mM imidazole, 1 mM magnesium acetate, 2 mM β-ME and protease inhibitor cocktail). Ca^2+ and EGTA were maintained throughout the process as required. After incubation the beads were washed sequentially with 60 mM Tris-Cl (pH 6.8), 100 mM NaCl and with 60 mM Tris-Cl (pH 6.8). The pellet was suspended in 2× SDS polyacrylamide gel electrophoresis (PAGE) buffer and boiled for 5 min followed by centrifugation for 5 min. The proteins were then analysed by western blotting.

[5] = ITC; ref [17]; cited from earlier work
Source text: Overall, the molecule is divided in two globular lobes, where each lobe has four alpha helices connected by loops. The N-terminal lobe has one EF-hand motif with a calcium ion bound to the loop between two helices. The C-terminal lobe has two small anti-parallel beta strands along with four loops (Fig. 1A). Signature residues of an additional EF-hand motif are found in the C-terminal lobe (residues87 to 98). In the crystal structure these residues form a loop between two helices similar to that of a typical EF-hand but density for Ca^2+ is not observed. Consistent with the crystals structure, ...

For “A*A*KAWKGYRNRKR [IQ-M1, mutated Myosin 1B IQ motif peptide IQ-M1 (where IQ is mutated to AA)]”, the “change in Kd versus native peptide (in words)” value (EhCaBP5 [1]) was “could not find any significant change in Kd value”.

In the case of “Entamoeba histolytica calcium binding protein-5 (EhCaBP5), recombinant (natural protein)”, the Kd [2] is reported as 2.4 nM and 5.4 nM.

With IQ motif peptide of myosin 1B (native) the Kd [3] was 0.64 nM.

For LQACARAFAARKHFS [myosin II IQ motif], the “binding to EhCaBP5 (in words)” value (EhCaBP5 [4]) was “does not bind”.

B1: EhCaBP5: calcium binding protein 5 from E. histolytica (accession number EAL46660) (protein)
chain: MQKHNEDLKESFLLFDGDGDGYLTLNEFESLVRVLGVVMETSAIASTYNSNSKVRGMSYELFTSCFSQLKTKSFNKDEIKTAINVLDKDKKGFIPAIELRRILSTIGDNMEQKEITDLFTFMGIDEQGVVKVDDFINQLMTVFK
For B1, the “co-sedimentation with / binding to F-actin (in words)” value (F-actin) is given as “No significant amount of EhCaBP5 was observed in the pellet fraction containing F-actin; also recorded: does not bind F-actin”, the “co-precipitation of myosin 1B (in words)” value (myosin 1B) is given as “precipitated myosin 1B along with EhCaBP5 even in the presence of EGTA” and the “number of Ca^2+ binding sites” value [5] is given as “one”.

— publication PMC4263763, “Crystal Structure of Calcium Binding Protein-5 from Entamoeba histolytica and Its Involvement in Initiation of Phagocytosis of Human Erythrocytes” (PLoS Pathogens, 2014)
